Data: patent US20040005550A1, “Methods and compositions useful for targeting activated vitronectin receptor alphavbeta3” (The Scripps Research Institute, priority 1998, published 2004)

Columns and labels:
[1] = target: T1, purified αvβ3 receptors from human placenta (human), P06756; assay: ELISA on purified integrin; 2 mM RGDS against WOW-1 Fab
T1 chain 1: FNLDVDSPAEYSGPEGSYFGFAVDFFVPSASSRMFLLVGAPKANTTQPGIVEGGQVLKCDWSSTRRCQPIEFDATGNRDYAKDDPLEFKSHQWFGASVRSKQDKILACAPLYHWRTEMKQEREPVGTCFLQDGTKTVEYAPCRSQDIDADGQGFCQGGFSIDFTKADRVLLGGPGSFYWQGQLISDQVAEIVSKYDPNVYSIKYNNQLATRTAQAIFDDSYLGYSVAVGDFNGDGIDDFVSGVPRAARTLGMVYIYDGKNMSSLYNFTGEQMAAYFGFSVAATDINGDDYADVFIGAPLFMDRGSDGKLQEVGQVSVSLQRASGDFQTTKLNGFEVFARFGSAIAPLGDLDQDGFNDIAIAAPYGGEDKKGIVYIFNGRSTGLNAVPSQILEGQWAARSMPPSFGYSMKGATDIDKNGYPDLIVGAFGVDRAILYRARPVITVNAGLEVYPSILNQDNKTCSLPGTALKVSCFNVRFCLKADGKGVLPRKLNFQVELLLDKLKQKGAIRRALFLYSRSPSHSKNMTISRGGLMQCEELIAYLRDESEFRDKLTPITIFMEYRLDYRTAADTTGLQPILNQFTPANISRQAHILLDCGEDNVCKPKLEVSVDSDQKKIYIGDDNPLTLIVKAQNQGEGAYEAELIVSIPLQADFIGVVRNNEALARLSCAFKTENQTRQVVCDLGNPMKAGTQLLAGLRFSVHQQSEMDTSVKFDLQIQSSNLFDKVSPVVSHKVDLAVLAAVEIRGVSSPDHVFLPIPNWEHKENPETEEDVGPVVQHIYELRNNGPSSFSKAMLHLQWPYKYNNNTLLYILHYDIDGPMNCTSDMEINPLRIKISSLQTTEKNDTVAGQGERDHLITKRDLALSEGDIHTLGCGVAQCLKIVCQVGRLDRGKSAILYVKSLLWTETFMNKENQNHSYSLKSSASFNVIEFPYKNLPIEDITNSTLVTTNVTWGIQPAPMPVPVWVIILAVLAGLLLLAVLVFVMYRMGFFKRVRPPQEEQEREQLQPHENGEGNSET
T1 chain 2: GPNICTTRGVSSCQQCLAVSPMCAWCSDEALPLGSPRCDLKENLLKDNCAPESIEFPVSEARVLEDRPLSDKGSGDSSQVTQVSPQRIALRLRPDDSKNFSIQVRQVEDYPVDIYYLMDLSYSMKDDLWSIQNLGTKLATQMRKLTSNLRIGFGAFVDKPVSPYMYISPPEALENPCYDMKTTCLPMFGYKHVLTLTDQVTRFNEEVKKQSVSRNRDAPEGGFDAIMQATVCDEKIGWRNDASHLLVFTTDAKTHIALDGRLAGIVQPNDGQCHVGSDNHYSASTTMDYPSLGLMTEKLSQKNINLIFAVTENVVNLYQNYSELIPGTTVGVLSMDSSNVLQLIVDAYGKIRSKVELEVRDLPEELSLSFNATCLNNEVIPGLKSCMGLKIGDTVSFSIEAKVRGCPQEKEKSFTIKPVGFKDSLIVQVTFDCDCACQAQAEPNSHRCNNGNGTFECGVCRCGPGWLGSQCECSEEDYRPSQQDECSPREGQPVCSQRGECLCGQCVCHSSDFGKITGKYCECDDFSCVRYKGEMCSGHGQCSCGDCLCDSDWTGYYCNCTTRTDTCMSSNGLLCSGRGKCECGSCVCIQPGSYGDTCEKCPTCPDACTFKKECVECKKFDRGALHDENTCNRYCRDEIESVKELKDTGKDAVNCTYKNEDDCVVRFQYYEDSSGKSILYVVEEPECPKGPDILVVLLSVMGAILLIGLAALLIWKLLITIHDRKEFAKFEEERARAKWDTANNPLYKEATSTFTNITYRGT

[2] = target: T2, human αvβ3 integrin on cells (human), P06756; assay: flow cytometry, AP5-treated αvβ3-CHO cells; 2 mM RGDS against aPB
T2 chain 1: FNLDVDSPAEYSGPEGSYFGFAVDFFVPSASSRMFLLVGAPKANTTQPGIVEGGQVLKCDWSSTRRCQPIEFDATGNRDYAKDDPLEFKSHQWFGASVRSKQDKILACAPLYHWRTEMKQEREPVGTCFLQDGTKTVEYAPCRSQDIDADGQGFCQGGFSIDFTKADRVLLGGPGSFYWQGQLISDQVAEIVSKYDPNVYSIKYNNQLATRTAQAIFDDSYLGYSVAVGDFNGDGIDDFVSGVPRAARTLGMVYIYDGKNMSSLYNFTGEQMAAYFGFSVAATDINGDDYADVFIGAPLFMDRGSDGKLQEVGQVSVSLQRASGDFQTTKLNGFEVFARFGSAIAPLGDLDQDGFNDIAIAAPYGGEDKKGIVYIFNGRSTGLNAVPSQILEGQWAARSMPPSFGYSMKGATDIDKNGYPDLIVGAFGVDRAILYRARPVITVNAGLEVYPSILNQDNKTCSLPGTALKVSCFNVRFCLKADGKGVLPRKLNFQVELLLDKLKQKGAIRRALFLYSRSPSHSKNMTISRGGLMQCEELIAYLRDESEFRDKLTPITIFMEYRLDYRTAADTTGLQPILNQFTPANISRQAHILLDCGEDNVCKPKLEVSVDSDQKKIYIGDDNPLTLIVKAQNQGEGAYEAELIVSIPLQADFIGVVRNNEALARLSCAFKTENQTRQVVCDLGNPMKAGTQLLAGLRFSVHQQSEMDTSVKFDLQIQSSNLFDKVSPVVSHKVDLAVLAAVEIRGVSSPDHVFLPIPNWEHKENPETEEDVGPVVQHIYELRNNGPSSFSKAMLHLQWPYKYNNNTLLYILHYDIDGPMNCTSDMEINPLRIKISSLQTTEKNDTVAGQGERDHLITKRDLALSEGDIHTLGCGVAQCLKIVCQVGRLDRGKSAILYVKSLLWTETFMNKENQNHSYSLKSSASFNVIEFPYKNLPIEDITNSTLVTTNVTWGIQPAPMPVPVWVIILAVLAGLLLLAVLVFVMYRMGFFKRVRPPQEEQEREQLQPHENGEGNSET
T2 chain 2: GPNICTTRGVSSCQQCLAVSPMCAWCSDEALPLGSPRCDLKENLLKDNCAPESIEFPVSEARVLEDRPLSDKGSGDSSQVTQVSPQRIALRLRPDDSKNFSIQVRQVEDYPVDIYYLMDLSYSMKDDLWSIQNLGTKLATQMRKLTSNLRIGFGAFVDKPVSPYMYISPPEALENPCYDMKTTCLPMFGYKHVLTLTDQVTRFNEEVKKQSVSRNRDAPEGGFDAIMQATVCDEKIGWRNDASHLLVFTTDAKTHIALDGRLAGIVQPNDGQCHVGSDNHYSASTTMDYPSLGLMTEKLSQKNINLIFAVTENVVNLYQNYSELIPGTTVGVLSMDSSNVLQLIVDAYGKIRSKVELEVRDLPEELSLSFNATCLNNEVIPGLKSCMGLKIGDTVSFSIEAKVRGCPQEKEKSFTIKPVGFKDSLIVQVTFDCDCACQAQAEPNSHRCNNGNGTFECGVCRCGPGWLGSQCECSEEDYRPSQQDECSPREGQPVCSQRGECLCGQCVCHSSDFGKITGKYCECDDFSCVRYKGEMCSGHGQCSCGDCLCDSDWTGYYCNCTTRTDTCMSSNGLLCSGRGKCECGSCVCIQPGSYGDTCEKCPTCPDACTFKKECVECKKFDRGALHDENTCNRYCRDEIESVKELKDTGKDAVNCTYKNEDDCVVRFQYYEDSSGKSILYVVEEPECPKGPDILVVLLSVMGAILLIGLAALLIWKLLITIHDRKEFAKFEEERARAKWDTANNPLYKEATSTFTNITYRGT

[3] = target: T2, human αvβ3 integrin on cells (human), …; assay: flow cytometry, AP5-treated αvβ3-CHO cells; 2 mM RGDS against WOW-1 Fab

B1: RGDS (peptide)
peptide: RGDS
modifications: not checked
With B1 the percent inhibition of WOW-1 Fab binding [1] was > 95%, the percent inhibition of aPB binding [2] was > 85% and the percent inhibition of WOW-1 Fab binding [3] was > 85%.
